Results taken from US20150098945A1 (Daiichi Sankyo, published 2015).
Numbering of substitutions follows the chain as printed. One block for each binder: values may come before it.

Legend:
[1] = target: T1, N-terminal FLAG-tagged cynomolgus monkey ROBO4, cynoROBO4-2 (pCI-FLAG-cynoROBO4-2) (cynomolgus monkey, UniProt Q8WZ75 28-1007 (human entry)); assay: flow cytometry (FC500), HEK293 cells transfected with pCI-FLAG-cynoROBO4-2, antibody at 10 µg/mL, FITC goat anti-human IgG Fc; control histogram IgG (human IgG)
T1 chain: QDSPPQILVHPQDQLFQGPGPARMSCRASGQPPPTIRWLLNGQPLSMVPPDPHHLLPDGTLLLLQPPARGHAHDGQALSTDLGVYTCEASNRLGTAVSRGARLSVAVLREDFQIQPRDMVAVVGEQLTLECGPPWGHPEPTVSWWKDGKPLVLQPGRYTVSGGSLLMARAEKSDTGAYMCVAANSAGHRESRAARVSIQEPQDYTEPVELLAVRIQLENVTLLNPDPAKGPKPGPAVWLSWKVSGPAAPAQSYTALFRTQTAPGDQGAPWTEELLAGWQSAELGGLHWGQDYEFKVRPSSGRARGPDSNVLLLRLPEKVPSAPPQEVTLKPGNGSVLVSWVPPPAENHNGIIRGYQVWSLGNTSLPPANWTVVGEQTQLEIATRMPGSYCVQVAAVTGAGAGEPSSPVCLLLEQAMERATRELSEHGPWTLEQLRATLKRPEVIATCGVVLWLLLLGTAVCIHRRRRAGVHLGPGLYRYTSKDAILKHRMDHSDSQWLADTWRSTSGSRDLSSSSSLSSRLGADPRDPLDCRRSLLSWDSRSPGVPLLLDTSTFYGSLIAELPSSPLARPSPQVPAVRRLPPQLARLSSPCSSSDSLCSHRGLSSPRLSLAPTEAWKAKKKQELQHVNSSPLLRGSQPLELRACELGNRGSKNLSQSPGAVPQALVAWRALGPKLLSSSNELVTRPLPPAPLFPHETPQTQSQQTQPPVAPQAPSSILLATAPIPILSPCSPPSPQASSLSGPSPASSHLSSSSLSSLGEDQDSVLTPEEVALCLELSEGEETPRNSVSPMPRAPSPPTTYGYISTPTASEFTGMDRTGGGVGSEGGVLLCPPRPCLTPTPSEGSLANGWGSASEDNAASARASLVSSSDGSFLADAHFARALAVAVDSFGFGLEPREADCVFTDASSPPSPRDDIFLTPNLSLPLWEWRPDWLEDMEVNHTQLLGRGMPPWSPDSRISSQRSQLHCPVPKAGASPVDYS

[2] = target: T2, N-terminal FLAG-tagged cynomolgus monkey ROBO4, cynoROBO4-1 (pCI-FLAG-cynoROBO4-1) (cynomolgus monkey, UniProt Q8WZ75 28-1007 (human entry)); assay: flow cytometry, HEK293 cells transfected with pCI-FLAG-cynoROBO4-1, antibody at 10 µg/mL, anti-mouse IgG FITC; control histogram IgG (Mouse IgG2a)
T2 chain: T1 chain with R69W, T175A, R192H, L423P, L549P, L567P, L603F
Protocol: HEK293 cells were inoculated at a concentration of 1.5×10⁶ cells/dish to a 60-mm dish (manufactured by Corning Inc.) and cultured overnight in a DMEM medium containing 10% FBS at 37° C. under 5% CO₂ conditions. On the next day, the HEK293 cells were transfected with pCI-hROBO4, pCI-mROBO4, pCI-raROBO4, pCI-FLAG-cynoROBO4-1, pCI-FLAG-cynoROBO4-2, pCI-hROBO1, pCI-hROBO2, or pCI-hROBO3 using FuGENE6 Transfection Reagent and further cultured overnight at 37° C. under 5% CO₂ conditions. On the next day, the expression vector-transfected cells were treated with TrypLE Express (manufactured by Life Technologies Corp.), washed with PBS containing 5% FBS, and then suspended in PBS containing 5% FBS. The obtained cell suspension was used in flow cytometry analysis.
Each cell suspension prepared in 4)-3-1 was centrifuged, and the supernatant was removed. Then, MAb1 or a negative control Mouse IgG2a was added at a concentration of 10 μg/mL to 2×10⁵ expression vector-transfected cells, and the resulting suspension was left standing at 4° C. for 1 hour. […] Data was analyzed using Flowjo. The histogram of FITC fluorescence intensity was prepared. The antibody was determined to bind in a cross-species manner when the histogram of MAb1 was shifted to a stronger fluorescence intensity region compared with the histogram of the negative control Mouse IgG2a.

binding result [1]: binds
B1: humanized MAb1 antibody H-2143 (antibody, human IgG2, kappa, V domains shown)
VH: EVQLVESGGGLVQPGGSLRLSCAASGFTFSTYAMSWVRQAPGKRLEWVATISQGGTYTYYPDSVKGRFTISRDNAKNTLYLQMNSLRAEDTAVYYCARLIYYDYLDYWGQGTLVTVSS
VL: DIVMTQSPLSLPVTLGEPASISCRSSQSLENENKNLYLNWYLQKPGQSPQLLIYRVSNRFSGVPDRFSGSGSGTDFTLKISRVEAEDVGVYYCLQVTHVPWTFGPGTKVDIKR
notes: Human IgG2 / kappa constant regions; also called hMAb1-H4-type heavy chain + hMAb1-L2-type light chain

binding result [2]: binds
B2: anti-ROBO4 mouse monoclonal antibody MAb1 (antibody, mouse IgG1, V domains shown)
VH: EVQLVESGGGLVKPGGSLKLSCAASGFTFSTYAMSWVRQTPEKRLEWVATISNGGTYTYYPDSVKGRFTISRDNAENTLYLQMSSLRSEDTAMYFCARLIYYDYLDYWGHGTTLTVSS
VL: DAVMTQTPLSLPVSLGDQASISCRSSQSLENSNGNTYLNWYFQKPGQSPQLLIYRVSNRFSGVLDRFSGSGSGTDFTLKISRVEAEDFGVYFCLQVTHVPWTFGGGTKLEIKR
notes: Mouse IgG1 (gamma1), kappa light chain, purified from hybridoma supernatant; also called parent antibody MAb1
